Measured values published in US20110263454A1, “Methods of Identifying Functional Characteristics of Promoters, Transcription Modifying Proteins and Transcription Modulating Agents” (Salk Institute for Biological Studies, priority 2008, published 2011).

Legend:
[1] = test system: mPgc1b promoter; assay: NHR-promoter luciferase screen, mPgc1b promoter; type: cell-based, mouse; settings: for Luc. act., normalized to lacZ / Normalized Luc. act., normalized to control: PGC1b promoter reporter, co-transfected HR, without or with its ligand; for Normalized Luc. act., normalized to control: relative to control; for luciferase activity normalized to lacZ activity and to a control, mPgc1b: mPgc1b promoter-luciferase, CV-1 cells, NHR +/- ligand, control = 1.00
Outline: (§1)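 CV-1 cells co-transfected with NHR homodimer or NHR/RXR heterodimer (pcDNA3.1, C-terminal V5H6 tag), promoter-luciferase construct and LacZ transfection control. Orphan receptors screened without ligand. Luciferase normalized to LacZ and to no-NHR/no-ligand control.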

[2] = test system: MCP-1 promoter; assay: NHR-promoter luciferase screen, MCP-1 promoter; type: cell-based; settings: for Normalized Luc. act., normalized to control / Luc. act., normalized to lacZ: MCP-1 promoter reporter; for Normalized Luc. act., normalized to control: HR without or with its ligand, relative to control; for Luc. act., normalized to lacZ: hormone receptor (HR) without or with its ligand; for mMCP-1 promoter reporter activity: transcription factor +/- ligand, control = 1.00
Outline: (§2)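 CV-1 cells were co-transfected with 50 ng NHR (homodimer or NHR/RXR heterodimer), 100 ng promoter-luciferase construct and 50 ng LacZ. Luciferase was normalized to LacZ and to a no-NHR/no-ligand control.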

[3] = test system: mDio2 promoter; assay: NHR-promoter luciferase screen, mDio2 promoter; type: cell-based, mouse; settings: for Luc. act., normalized to lacZ / Normalized Luc. act., normalized to control: Dio2, HR component without or with its ligand; for mDio2 promoter reporter activity: transcription factor +/- ligand, control = 1.00
Outline: as §2

[4] = test system: hCYP3A4 promoter; assay: NHR-promoter luciferase screen, hCYP3A4 promoter; type: cell-based, human; settings: for Luc. act., normalized to lacZ / Normalized Luc. act., normalized to control: CYP3A4 promoter, HR/ligand component; for hCYP3A4 promoter reporter activity: transcription factor +/- ligand, control = 1.00
Outline: as §1

[5] = test system: mDio1 promoter; assay: NHR-promoter luciferase screen, mDio1 promoter; type: cell-based, mouse; settings: for Luc. act., normalized to lacZ / Normalized Luc. act., normalized to control: Dio1, HR component without or with its ligand; for mDio1 promoter reporter activity: transcription factor +/- ligand, control = 1.00
Outline: as §2

[6] = test system: mABCA1 promoter; assay: NHR-promoter luciferase screen, mABCA1 promoter; type: cell-based, mouse; settings: for Luc. act., normalized to lacZ / Normalized Luc. act., normalized to control: ABCA1 promoter, hormone receptor with or without its ligand; for Normalized Luc. act., normalized to control: relative to control; for mABCA1 promoter reporter activity: transcription factor +/- ligand, control = 1.00
Outline: as §2

Molecule | Luc. act., normalized to lacZ [1] | Normalized Luc. act., normalized to control [1] | luciferase activity normalized to lacZ activity and to a control, mPgc1b [1] | Normalized Luc. act., normalized to control [2] | Luc. act., normalized to lacZ [2] | mMCP-1 promoter reporter activity [2] | Luc. act., normalized to lacZ [3] | Normalized Luc. act., normalized to control [3] | mDio2 promoter reporter activity [3] | Luc. act., normalized to lacZ [4] | Normalized Luc. act., normalized to control [4] | hCYP3A4 promoter reporter activity [4] | Luc. act., normalized to lacZ [5] | Normalized Luc. act., normalized to control [5] | mDio1 promoter reporter activity [5] | Luc. act., normalized to lacZ [6] | Normalized Luc. act., normalized to control [6] | mABCA1 promoter reporter activity [6]
RORb: RAR-related Orphan Receptor β (NR1F2), cDNA driver (protein, UniProt Q92753 1-470, looked up) Nuclear receptor ROR-beta: MCENQLKTKADATAQIEVIPCKICGDKSSGIHYGVITCEGCKGFFRRSQQNNASYSCPRQRNCLIDRTNRNRCQHCRLQKCLALGMSRDAVKFGRMSKKQRDSLYAEVQKHQQRLQEQRQQQSGEAEALARVYSSSISNGLSNLNNETSGTYANGHVIDLPKSEGYYNVDSGQPSPDQSGLDMTGIKQIKQEPIYDLTSVPNLFTYSSFNNGQLAPGITMTEIDRIAQNIIKSHLETCQYTMEELHQLAWQTHTYEEIKAYQSKSREALWQQCAIQITHAIQYVVEFAKRITGFMELCQNDQILLLKSGCLEVVLVRMCRAFNPLNNTVLFEGKYGGMQMFKALGSDDLVNEAFDFAKNLCSLQLTEEEIALFSSAVLISPDRAWLIEPRKVQKLQEKIYFALQHVIQKNHLDDETLAKLIAKIPTITAVCNLHGEKLQVFKQSHPEIVNTLFPPLYKELFNPDCATGCK | 10.7 | 0.9 | 0.90 | 1.6 | 176.3 | 1.65 | 23.1 | 1.5 | 1.47 | 2.5 | 0.6 | 0.56 | 6.4 | 1.4 | 1.44 | 26.4 | 4.7 | 4.69
Erb: Estrogen Receptor β (NR3A2, ERb), cDNA driver (protein, UniProt Q92731 1-530, looked up) Estrogen receptor beta: MDIKNSPSSLNSPSSYNCSQSILPLEHGSIYIPSSYVDSHHEYPAMTFYSPAVMNYSIPSNVTNLEGGPGRQTTSPNVLWPTPGHLSPLVVHRQLSHLYAEPQKSPWCEARSLEHTLPVNRETLKRKVSGNRCASPVTGPGSKRDAHFCAVCSDYASGYHYGVWSCEGCKAFFKRSIQGHNDYICPATNQCTIDKNRRKSCQACRLRKCYEVGMVKCGSRRERCGYRLVRRQRSADEQLHCAGKAKRSGGHAPRVRELLLDALSPEQLVLTLLEAEPPHVLISRPSAPFTEASMMMSLTKLADKELVHMISWAKKIPGFVELSLFDQVRLLESCWMEVLMMGLMWRSIDHPGKLIFAPDLVLDRDEGKCVEGILEIFDMLLATTSRFRELKLQHKEYLCVKAMILLNSSMYPLVTATQDADSSRKLAHLLNAVTDALVWVIAKSGISSQQQSMRLANLLMLLSHVRHASNKGMEHLLNMKCKNVVPVYDLLLEMLNAHVLRGCKSSITGSECSPAEDSKSKEGSQNPQSQ | 9.2 | 0.8 | 0.77 | 1.4 | 146.9 | 1.37 | 19.9 | 1.3 | 1.27 | 6.0 | 1.3 | 1.35 | 9.3 | 2.1 | 2.09 | 12.4 | 2.2 | 2.21
TR2: Testicular Orphan Nuclear Receptor 2 (NR2C1), cDNA driver (protein, UniProt P13056 1-603, looked up) Nuclear receptor subfamily 2 …: MATIEEIAHQIIEQQMGEIVTEQQTGQKIQIVTALDHNTQGKQFILTNHDGSTPSKVILARQDSTPGKVFLTTPDAAGVNQLFFTTPDLSAQHLQLLTDNSPDQGPNKVFDLCVVCGDKASGRHYGAVTCEGCKGFFKRSIRKNLVYSCRGSKDCIINKHHRNRCQYCRLQRCIAFGMKQDSVQCERKPIEVSREKSSNCAASTEKIYIRKDLRSPLTATPTFVTDSESTRSTGLLDSGMFMNIHPSGVKTESAVLMTSDKAESCQGDLSTLANVVTSLANLGKTKDLSQNSNEMSMIESLSNDDTSLCEFQEMQTNGDVSRAFDTLAKALNPGESTACQSSVAGMEGSVHLITGDSSINYTEKEGPLLSDSHVAFRLTMPSPMPEYLNVHYIGESASRLLFLSMHWALSIPSFQALGQENSISLVKAYWNELFTLGLAQCWQVMNVATILATFVNCLHNSLQQDKMSTERRKLLMEHIFKLQEFCNSMVKLCIDGYEYAYLKAIVLFSPDHPSLENMEQIEKFQEKAYVEFQDYITKTYPDDTYRLSRLLLRLPALRLMNATITEELFFKGLIGNIRIDSVIPHILKMEPADYNSQIIGHSI | 9.8 | 0.8 | 0.83 | 2.9 | 311.2 | 2.91 | 33.8 | 2.2 | 2.15 | 2.0 | 0.4 | 0.44 | 14.8 | 3.3 | 3.32 | 31.2 | 5.6 | 5.55
TR4: Testicular Orphan Nuclear Receptor 4 (NR2C2), cDNA driver (protein, UniProt P49116 1-596, looked up) Nuclear receptor subfamily 2 …: MTSPSPRIQIISTDSAVASPQRIQIVTDQQTGQKIQIVTAVDASGSPKQQFILTSPDGAGTGKVILASPETSSAKQLIFTTSDNLVPGRIQIVTDSASVERLLGKTDVQRPQVVEYCVVCGDKASGRHYGAVSCEGCKGFFKRSVRKNLTYSCRSNQDCIINKHHRNRCQFCRLKKCLEMGMKMESVQSERKPFDVQREKPSNCAASTEKIYIRKDLRSPLIATPTFVADKDGARQTGLLDPGMLVNIQQPLIREDGTVLLATDSKAETSQGALGTLANVVTSLANLSESLNNGDTSEIQPEDQSASEITRAFDTLAKALNTTDSSSSPSLADGIDTSGGGSIHVISRDQSTPIIEVEGPLLSDTHVTFKLTMPSPMPEYLNVHYICESASRLLFLSMHWARSIPAFQALGQDCNTSLVRACWNELFTLGLAQCAQVMSLSTILAAIVNHLQNSIQEDKLSGDRIKQVMEHIWKLQEFCNSMAKLDIDGYEYAYLKAIVLFSPDHPGLTSTSQIEKFQEKAQMELQDYVQKTYSEDTYRLARILVRLPALRLMSSNITEELFFTGLIGNVSIDSIIPYILKMETAEYNGQITGASL | 17.3 | 1.5 | 1.46 | 2.1 | 229.9 | 2.15 | 51.9 | 3.3 | 3.31 | 7.7 | 1.7 | 1.74 | 56.0 | 12.6 | 12.55 | 36.4 | 6.5 | 6.49
HNF4g: Hepatocyte Nuclear Factor γ (NR2A2), cDNA driver (protein, UniProt Q14541 1-408, looked up) Hepatocyte nuclear factor …: MNTTDNGVNCLCAICGDRATGKHYGASSCDGCKGFFRRSIRKSHVYSCRFSRQCVVDKDKRNQCRYCRLRKCFRAGMKKEAVQNERDRISTRRSTFDGSNIPSINTLAQAEVRSRQISVSSPGSSTDINVKKIASIGDVCESMKQQLLVLVEWAKYIPAFCELPLDDQVALLRAHAGEHLLLGATKRSMMYKDILLLGNNYVIHRNSCEVEISRVANRVLDELVRPFQEIQIDDNEYACLKAIVFFDPDAKGLSDPVKIKNMRFQVQIGLEDYINDRQYDSRGRFGELLLLLPTLQSITWQMIEQIQFVKLFGMVKIDNLLQEMLLGGASNDGSHLHHPMHPHLSQDPLTGQTILLGPMSTLVHADQISTPETPLPSPPQGSGQEQYKIAANQASVISHQHLSKQKQL | 6.8 | 0.6 | 0.57 | 1.2 | 128.6 | 1.20 | 18.0 | 1.1 | 1.14 | 1.8 | 0.4 | 0.40 | 15.6 | 3.5 | 3.49 | 11.3 | 2.0 | 2.01
